Assay results as given in patent publication US20140336119A1 (INSTITUT PASTEUR, published 2014).

Key:
[1] = biological target: T1, Muc2 (human, glycosylated, secreted in colonic mucus) (human, UniProt Q02817 21-5289, limits assumed, native glycosylation, with sulfated oligosaccharides); test: staining of PFA-fixed; FIG. 31 is titled 'Identification of Muc2 in neutrophile granules'
T1 construct: Native secreted mucin in mucus extracts or tissue, not a purified recombinant protein; also called glycoprotein Muc2
Experimental: FIG. 31. Identification of Muc2 in neutrophile granules. Human neutrophil (PMN) granule staining using Cy5-MUB40-1, Cy5-MUB40-2, Cy5-MUB40-3, Cy5-MUB40-4 peptides. Schematic description of the Cy5-conjugated peptides. PMN were purified from healthy donor blood samples and fixed in the presence of 4% PFA. Fluorescent staining of human colonic mucus was performed by the addition of 1 μg/mL of the Cy5-conjugated peptides (Green) with Dapi (1:100) (Blue) and Phalloidin-RRX (1:1000) (Red). Image acquisition was performed using a fluorescent confocal microscope (see Methods).

[2] = biological target: Muc5ac (human, in colonic mucus extract) (human, UniProt P98088 28-5654, limits assumed); test: pulldown on avidin-agarose beads, dot blot immunodetection
Experimental: (§1) Pulldown assays were performed in the presence of 600 μg biot-MUB₇₀ bound to 500 μL Avidin-agarose beads (Thermo Scientific) in a Phosphate Buffer pH=8 buffer for 1 h at 4° C. After 3 washes, 10 mg soluble human colonic mucus extract were incubated with the loaded beads for 2 h at 4° C. After 3 washes, beads were boiled in the presence of 1× Laemli buffer. As a negative control, Avidin-agarose beads were loaded with 15 μg biotin (Sigma-Aldrich) and processed using the same procedure. Experiments were performed on two independent occasions.
(§2) In order to identify a MUB₇₀ ligand present in the soluble extracts of human colonic mucus, biot-MUB₇₀, a biotinylated form of MUB₇₀, was synthesized (see Methods) in order to perform pulldown assays. Biot-MUB₇₀ was incubated with avidin beads and further with human colonic mucus extracts (produced in vitro from differentiated HT-29 MTX cells, see Methods). Biotin only was used as a negative control. […] A dot blot assay was then performed, focusing on secreted mucins, which are the major components of colonic mucus. Muc2 was immunodectected in the eluted fraction, and not in the negative control, and Muc5ac, Muc5b or Muc6, all detected in the input were absent from the eluted fraction (FIG. 4A). […] Processing a chemical deglycosylation step on the soluble mucus extract (see Methods) prior to pulldown assay abolished the interaction between Muc2 and biot-MUB₇₀ (FIG. 4A). […] [12].

[3] = biological target: Muc5b (human, in colonic mucus extract) (human, UniProt Q9HC84 26-5762, limits assumed); test: as above
Experimental: as §1, §2

[4] = biological target: Muc6 (human, in colonic mucus extract) (human, UniProt Q6W4X9 23-2439, limits assumed); test: as above
Experimental: as §1, §2

[5] = biological target: T2, Muc2 of mouse colonic mucus (mouse, UniProt Q80Z19 21-4576, limits assumed); test: fluorescent staining of PFA-fixed mouse colon, confocal microscopy
T2 construct: The experiment stained colonic mucus; also called murine Muc2
T2 sequence (Q80Z19 21-4576 limits assumed): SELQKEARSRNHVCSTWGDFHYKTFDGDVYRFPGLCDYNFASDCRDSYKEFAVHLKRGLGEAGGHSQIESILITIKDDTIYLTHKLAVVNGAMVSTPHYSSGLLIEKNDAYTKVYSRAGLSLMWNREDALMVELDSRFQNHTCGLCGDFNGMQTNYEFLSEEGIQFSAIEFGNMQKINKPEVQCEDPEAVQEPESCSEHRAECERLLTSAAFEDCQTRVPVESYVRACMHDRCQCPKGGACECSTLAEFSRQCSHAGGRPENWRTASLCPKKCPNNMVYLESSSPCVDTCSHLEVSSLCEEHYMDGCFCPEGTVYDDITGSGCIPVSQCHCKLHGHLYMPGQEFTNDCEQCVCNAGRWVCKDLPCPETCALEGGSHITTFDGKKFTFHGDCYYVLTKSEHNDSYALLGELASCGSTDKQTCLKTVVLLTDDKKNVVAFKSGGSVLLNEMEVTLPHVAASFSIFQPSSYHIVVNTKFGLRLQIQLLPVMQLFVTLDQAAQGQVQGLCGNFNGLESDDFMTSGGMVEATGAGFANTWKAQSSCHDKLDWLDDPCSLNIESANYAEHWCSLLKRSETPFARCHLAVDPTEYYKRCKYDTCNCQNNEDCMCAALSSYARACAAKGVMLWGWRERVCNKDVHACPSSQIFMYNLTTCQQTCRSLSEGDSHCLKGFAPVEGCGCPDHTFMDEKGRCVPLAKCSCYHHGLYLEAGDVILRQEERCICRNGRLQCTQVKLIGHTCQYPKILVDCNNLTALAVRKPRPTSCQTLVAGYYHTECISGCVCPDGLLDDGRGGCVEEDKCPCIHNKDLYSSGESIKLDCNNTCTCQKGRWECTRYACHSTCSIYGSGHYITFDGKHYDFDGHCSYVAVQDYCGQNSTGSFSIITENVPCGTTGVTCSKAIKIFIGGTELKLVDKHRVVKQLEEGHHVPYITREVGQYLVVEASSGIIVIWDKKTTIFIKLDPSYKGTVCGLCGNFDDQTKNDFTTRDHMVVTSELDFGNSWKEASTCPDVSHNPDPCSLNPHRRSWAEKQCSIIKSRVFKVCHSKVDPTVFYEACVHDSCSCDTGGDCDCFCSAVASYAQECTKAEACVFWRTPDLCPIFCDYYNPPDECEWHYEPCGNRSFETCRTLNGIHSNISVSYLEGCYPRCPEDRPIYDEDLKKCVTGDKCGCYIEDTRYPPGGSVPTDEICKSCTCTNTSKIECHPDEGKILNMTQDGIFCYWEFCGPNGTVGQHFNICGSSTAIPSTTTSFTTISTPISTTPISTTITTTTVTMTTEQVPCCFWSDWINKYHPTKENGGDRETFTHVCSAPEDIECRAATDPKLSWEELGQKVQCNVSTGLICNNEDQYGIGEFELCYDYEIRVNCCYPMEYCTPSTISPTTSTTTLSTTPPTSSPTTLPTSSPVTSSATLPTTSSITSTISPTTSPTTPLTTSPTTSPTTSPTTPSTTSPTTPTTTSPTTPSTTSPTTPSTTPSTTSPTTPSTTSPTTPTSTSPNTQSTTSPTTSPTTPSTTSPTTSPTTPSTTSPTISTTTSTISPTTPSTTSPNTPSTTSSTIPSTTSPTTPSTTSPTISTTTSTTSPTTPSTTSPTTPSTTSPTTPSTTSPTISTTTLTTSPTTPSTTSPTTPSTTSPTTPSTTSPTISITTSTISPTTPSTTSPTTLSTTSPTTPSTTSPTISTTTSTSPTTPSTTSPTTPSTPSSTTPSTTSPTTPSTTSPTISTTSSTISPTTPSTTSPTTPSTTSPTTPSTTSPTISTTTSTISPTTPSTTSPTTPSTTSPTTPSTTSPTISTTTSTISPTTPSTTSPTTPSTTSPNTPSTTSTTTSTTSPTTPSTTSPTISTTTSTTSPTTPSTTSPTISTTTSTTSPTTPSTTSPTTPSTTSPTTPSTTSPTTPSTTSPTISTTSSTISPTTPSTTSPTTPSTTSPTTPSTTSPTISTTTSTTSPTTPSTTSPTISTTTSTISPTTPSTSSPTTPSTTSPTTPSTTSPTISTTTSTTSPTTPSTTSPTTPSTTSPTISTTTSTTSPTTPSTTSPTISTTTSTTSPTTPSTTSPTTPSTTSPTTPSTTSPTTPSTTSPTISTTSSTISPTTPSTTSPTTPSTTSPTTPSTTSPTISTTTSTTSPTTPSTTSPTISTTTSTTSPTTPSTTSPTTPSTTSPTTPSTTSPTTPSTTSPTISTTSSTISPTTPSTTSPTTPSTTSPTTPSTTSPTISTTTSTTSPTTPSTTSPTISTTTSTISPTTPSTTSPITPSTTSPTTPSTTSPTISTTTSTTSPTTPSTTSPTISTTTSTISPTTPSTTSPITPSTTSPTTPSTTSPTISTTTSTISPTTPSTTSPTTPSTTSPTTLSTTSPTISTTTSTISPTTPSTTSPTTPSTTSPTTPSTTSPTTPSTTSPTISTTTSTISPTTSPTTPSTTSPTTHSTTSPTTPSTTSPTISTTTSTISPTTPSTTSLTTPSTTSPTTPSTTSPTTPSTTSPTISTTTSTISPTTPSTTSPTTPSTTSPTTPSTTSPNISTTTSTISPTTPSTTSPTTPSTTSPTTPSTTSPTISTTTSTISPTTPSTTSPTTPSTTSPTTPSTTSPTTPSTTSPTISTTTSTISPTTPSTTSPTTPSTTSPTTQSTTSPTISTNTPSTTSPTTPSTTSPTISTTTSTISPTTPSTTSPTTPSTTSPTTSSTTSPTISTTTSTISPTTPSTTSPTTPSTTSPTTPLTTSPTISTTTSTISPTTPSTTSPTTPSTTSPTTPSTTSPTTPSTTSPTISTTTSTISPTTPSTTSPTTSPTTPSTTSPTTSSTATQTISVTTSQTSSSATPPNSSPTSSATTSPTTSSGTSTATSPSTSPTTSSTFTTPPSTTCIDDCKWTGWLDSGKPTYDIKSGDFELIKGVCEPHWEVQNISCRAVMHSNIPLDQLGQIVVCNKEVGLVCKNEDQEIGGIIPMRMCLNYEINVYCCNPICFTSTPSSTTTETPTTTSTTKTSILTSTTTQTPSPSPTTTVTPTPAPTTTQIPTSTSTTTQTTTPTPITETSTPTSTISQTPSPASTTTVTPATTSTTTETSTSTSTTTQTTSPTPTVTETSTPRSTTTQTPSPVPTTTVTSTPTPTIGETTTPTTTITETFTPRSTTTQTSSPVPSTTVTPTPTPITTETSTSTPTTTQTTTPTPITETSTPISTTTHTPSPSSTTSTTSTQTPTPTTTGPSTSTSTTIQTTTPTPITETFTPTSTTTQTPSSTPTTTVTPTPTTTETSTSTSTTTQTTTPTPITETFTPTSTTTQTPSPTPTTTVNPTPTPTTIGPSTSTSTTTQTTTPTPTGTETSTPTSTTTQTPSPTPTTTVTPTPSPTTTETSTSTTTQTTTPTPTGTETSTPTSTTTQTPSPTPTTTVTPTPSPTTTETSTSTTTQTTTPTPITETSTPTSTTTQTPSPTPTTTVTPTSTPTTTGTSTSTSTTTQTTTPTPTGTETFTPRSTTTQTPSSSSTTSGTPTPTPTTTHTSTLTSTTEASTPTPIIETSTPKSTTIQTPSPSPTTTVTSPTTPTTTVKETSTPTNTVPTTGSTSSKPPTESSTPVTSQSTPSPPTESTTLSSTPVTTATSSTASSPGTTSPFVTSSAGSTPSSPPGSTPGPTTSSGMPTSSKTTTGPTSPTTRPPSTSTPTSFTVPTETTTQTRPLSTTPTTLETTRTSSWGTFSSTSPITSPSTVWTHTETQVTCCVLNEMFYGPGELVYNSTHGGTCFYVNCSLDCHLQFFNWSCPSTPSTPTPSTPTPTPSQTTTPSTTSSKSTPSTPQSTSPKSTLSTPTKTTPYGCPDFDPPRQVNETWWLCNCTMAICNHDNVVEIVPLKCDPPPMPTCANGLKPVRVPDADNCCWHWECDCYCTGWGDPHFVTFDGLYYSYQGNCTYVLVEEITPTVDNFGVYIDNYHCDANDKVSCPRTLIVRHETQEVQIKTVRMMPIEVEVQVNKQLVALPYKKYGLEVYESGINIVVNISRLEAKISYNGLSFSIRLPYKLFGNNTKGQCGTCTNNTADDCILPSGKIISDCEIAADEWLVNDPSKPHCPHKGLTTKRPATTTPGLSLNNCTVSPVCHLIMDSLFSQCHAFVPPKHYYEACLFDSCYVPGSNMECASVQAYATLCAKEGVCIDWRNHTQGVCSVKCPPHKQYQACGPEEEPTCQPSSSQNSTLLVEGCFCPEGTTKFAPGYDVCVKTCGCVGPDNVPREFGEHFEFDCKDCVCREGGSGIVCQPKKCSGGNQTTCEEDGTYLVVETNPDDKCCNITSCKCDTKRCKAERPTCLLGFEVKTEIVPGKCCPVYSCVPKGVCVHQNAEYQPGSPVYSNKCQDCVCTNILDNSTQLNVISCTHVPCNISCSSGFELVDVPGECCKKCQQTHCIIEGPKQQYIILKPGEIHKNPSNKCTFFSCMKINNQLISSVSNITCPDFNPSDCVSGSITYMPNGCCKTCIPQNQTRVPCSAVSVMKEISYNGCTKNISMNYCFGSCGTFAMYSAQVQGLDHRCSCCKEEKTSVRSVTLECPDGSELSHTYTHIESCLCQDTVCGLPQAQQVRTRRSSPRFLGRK
Experimental: FIG. 11. Mucus staining using Cy5-MUB₇₀ on fixed tissues. (A) Guinea pig colon, (B) rabbit ileum and (C) mouse colon were fixed in PFA 4%. Immunofluorescent staining was performed using Cy5-MUB₇₀ (1 μg/mL) (blue). Actin is stained in red (Phall.-RRX), Muc2 is stained in green (α-Muc2). Observations were performed using a confocal microscope. Bar is 50 μm.

[6] = biological target: T1, Muc2 (human, glycosylated, secreted in …); test: fluorescent staining of fixed human colonic mucus; MUB40 probes said to display the same properties as the MUB70 probe
Experimental: FIG. 22. Schematic description of the Cy5-MUB40-1, Cy5-MUB40-2, Cy5-MUB40-3, Cy5-MUB40-4 peptides (SEQ ID NOS 62 to 65). Fluorescent staining of human colonic mucus was performed by the addition of 1 μg/mL of the corresponding Cy5-conjugated peptides with Phalloidin-RRX (1:100) on formol fixed, paraffin embedded samples. Image acquisition was performed using a fluorescent confocal microscope (see Methods).
FIG. 23 Comparative staining analysis of human colonic goblet cells using Cy5-MUB70 and Cy5-MUB40-1. Fluorescent staining of human colonic mucus was performed by the addition of 1 μg/mL of the corresponding Cy5-conjugated peptides with Phalloidin-RRX (1:100) on formol fixed, paraffin embedded samples. Image acquisition was performed using a fluorescent confocal microscope (see Methods).

B1: Cy5-MUB40-4 (peptide)
peptide: Ac-C(Cy5 maleimide)VHVQYIDGETDQMLRQDDLDGYTDETIPYSTAEGIKKFEG-NH2
notes: also called MUB40-Cy5#4; Cy5-labeled MUB40-4
Q: Does B1 bind [1]?
A: binds

B2: biot-MUB70 (biotinylated MUB70) (peptide)
peptide: CVHVQYIDGETDQMLRQDDLDGYTDETIPYSTAEGIKKFEGDGYELFKDNFPAGEKFDNDDTNDQFYTVIF
modifications: maleimide-PEG2-biotin on the added N-terminal Cys
notes: Chemically synthesized; also called biotinylated derivative of MUB70
Q: What does the source list for B2?
A: binding result [2]: no binding; binding result [3]: no binding; binding result [4]: no binding

B3: Cy5-MUB70 (peptide)
peptide: B2 peptide
modifications: Cy5 mono maleimide on the added N-terminal Cys
notes: Chemically synthesized; also called MUB70-Cy5; Cy5-labeled MUB
Q: Does B3 bind [5]?
A: no binding (tested: 1 µg/mL)

B4: Cy5-MUB40-3 (peptide)
peptide: Ac-C(Cy5 maleimide)DQMLRQDDLDGYTDETIPYSTAEGIKKFEGDGYELFKDNF-NH2
notes: also called MUB40-Cy5#3; Cy5-labeled MUB40-3
Q: Does B4 bind [1]?
A: binds

B5: Cy5-MUB40-1 (peptide)
peptide: Ac-C(Cy5 maleimide)TAEGIKKFEGDGYELFKDNFPAGEKFDNDDTNDQFYTVIF-NH2
notes: also called MUB40-Cy5#1; Cy5-labeled MUB40-1
Q: Does B5 bind [6]?
A: binds

B6: Cy5-MUB40-2 (peptide)
peptide: Ac-C(Cy5 maleimide)GYTDETIPYSTAEGIKKFEGDGYELFKDNFPAGEKFDNDD-NH2
notes: also called MUB40-Cy5#2; Cy5-labeled MUB40-2
Q: Does B6 bind [1]?
A: binds
